These are literature values, as cited in article PMC3137898.

For the data set, the target named is syntrophin PDZ (Mus musculus) (UniProt Q61234).
Chain of syntrophin PDZ (Mus musculus) (Q61234 78-167): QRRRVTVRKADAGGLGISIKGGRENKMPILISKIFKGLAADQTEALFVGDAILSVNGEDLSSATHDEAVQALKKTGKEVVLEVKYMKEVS

Chain of neuronal nitric oxide synthase PDZ (P29476 14-102): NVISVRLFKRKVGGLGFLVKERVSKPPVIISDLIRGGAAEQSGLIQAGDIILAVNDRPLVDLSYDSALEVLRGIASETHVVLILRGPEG

One may read the Kd as a measure of binding affinity in units of concentration. For the substance “neuronal nitric oxide synthase PDZ (from UniProt P29476)”, the Kd is 600 nM.
